According to article PMC6591361, “Recombinant production of human α2-macroglobulin variants and interaction studies with recombinant G-related α2-macroglobulin binding protein and latent transforming growth factor-β2” (Scientific Reports, 2019):

Target: the molecule itself
Experiment: SEC; Superose 6 10/300 (full-length recombinant hα2M) or Superdex 75 10/300 (pro-TGF-β2), buffer D (20 mM Tris-HCl, 150 mM sodium chloride, pH 7.5)

Row | Protein | stoichiometry N
1 | recombinant full-length human α2-macroglobulin from Expi293F cells (natural protein, UniProt P01023 24-1468, looked up, human α2-macroglobulin, UniProt P01023, residues S24-S1468; also called recombinant hα2M from Expi293F cells; pS6-hα2M-H6; source: Expi293F cells, transiently transfected, secreted (mouse Ig κ leader), purified (Ni-NTA, IEC, SEC); not shown: His6, C-terminal, kept) SVSGKPQYMVLVPSLLHTETTEKGCVLLSYLNETVTVSASLESVRGNRSLFTDLEAENDVLHCVAFAVPKSSSNEEVMFLTVQVKGPTQEFKKRTTVMVKNEDSLVFVQTDKSIYKPGQTVKFRVVSMDENFHPLNELIPLVYIQDPKGNRIAQWQSFQLEGGLKQFSFPLSSEPFQGSYKVVVQKKSGGRTEHPFTVEEFVLPKFEVQVTVPKIITILEEEMNVSVCGLYTYGKPVPGHVTVSICRKYSDASDCHGEDSQAFCEKFSGQLNSHGCFYQQVKTKVFQLKRKEYEMKLHTEAQIQEEGTVVELTGRQSSEITRTITKLSFVKVDSHFRQGIPFFGQVRLVDGKGVPIPNKVIFIRGNEANYYSNATTDEHGLVQFSINTTNVMGTSLTVRVNYKDRSPCYGYQWVSEEHEEAHHTAYLVFSPSKSFVHLEPMSHELPCGHTQTVQAHYILNGGTLLGLKKLSFYYLIMAKGGIVRTGTHGLLVKQEDMKGHFSISIPVKSDIAPVARLLIYAVLPTGDVIGDSAKYDVENCLANKVDLSFSPSQSLPASHAHLRVTAAPQSVCALRAVDQSVLLMKPDAELSASSVYNLLPEKDLTGFPGPLNDQDNEDCINRHNVYINGITYTPVSSTNEKDMYSFLEDMGLKAFTNSKIRKPKMCPQLQQYEMHGPEGLRVGFYESDVMGRGHARLVHVEEPHTETVRKYFPETWIWDLVVVNSAGVAEVGVTVPDTITEWKAGAFCLSEDAGLGISSTASLRAFQPFFVELTMPYSVIRGEAFTLKATVLNYLPKCIRVSVQLEASPAFLAVPVEKEQAPHCICANGRQTVSWAVTPKSLGNVNFTVSAEALESQELCGTEVPSVPEHGRKDTVIKPLLVEPEGLEKETTFNSLLCPSGGEVSEELSLKLPPNVVEESARASVSVLGDILGSAMQNTQNLLQMPYGCGEQNMVLFAPNIYVLDYLNETQQLTPEIKSKAIGYLNTGYQRQLNYKHYDGSYSTFGERYGRNQGNTWLTAFVLKTFAQARAYIFIDEAHITQALIWLSQRQKDNGCFRSSGSLLNNAIKGGVEDEVTLSAYITIALLEIPLTVTHPVVRNALFCLESAWKTAQEGDHGSHVYTKALLAYAFALAGNQDKRKEVLKSLNEEAVKKDNSVHWERPQKPKAPVGHFYEPQAPSAEVEMTSYVLLAYLTAQPAPTSEDLTSATNIVKWITKQQNAQGGFSSTQDTVVALHALSKYGAATFTRTGKAAQVTIQSSGTFSSKFQVDNNNRLLLQQVSLPELPGEYSMKVTGEGCVYLQTSLKYNILPEKEEFPFALGVQTLPQTCDEPKAHTSFQISLSVSYTGSRSASNMAIVDVKMVSGFIPLKPTVKMLERSNHVSRTEVSSNHVLIYLDKVSNQTLSLFFTVLQDVPVRDLKPAIVKVYDYYETDEFAIAEYNAPCS | 4
2 | Strep-tagged latent human transforming growth factor-β2 (pro-TGF-β2) (natural protein, residues from the construct between the tag and L21; human pro-TGF-β2 (LAP plus mature TGF-β2), UniProt P61812, residues L21-S414; The purified protein was partially cleaved before A303 by host peptidases; also called Strep-tagged pro-TGF-β2; pS6-TGFB2-STREP; not shown: Strep-tag, N-terminal, kept) LSLSTCSTLDMDQFMRKRIEAIRGQILSKLKLTSPPEDYPEPEEVPPEVISIYNSTRDLLQEKASRRAAACERERSDEEYYAKEVYKIDMPPFFPSENAIPPTFYRPYFRIVRFDVSAMEKNASNLVKAEFRVFRLQNPKARVPEQRIELYQILKSKDLTSPTQRYIDSKVVKTRAEGEWLSFDVTDAVHEWLHHKDRNLGFKISLHCPCCTFVPSNNYIIPNKSEELEARFAGIDGTSTYTSGDQKTIKSTRKKNSGKTPHLLLMLLPSYRLESQQTNRRKKRALDAAYCFRNVQDNCCLRPLYIDFKRDLGWKWIHEPKGYNANFCAGACPYLWSSDTQHSRVLSLYNTINPEASASPCCVSQDLEPLTILYYIGKTPKIEQLSNMIVKSCKCS | 2
3 | N-terminally octahistidine-tagged latent human transforming growth factor-β2 (pro-TGF-β2) (natural protein, residues from the construct between the tag and L21; human pro-TGF-β2 (LAP plus mature TGF-β2), UniProt P61812, residues L21-S414; Partially cleaved before A303 by host peptidases; also called N-terminally His6-tagged pro-TGF-β2; pS6-TGFB2-H8; not shown: His8, N-terminal, kept) LSLSTCSTLDMDQFMRKRIEAIRGQILSKLKLTSPPEDYPEPEEVPPEVISIYNSTRDLLQEKASRRAAACERERSDEEYYAKEVYKIDMPPFFPSENAIPPTFYRPYFRIVRFDVSAMEKNASNLVKAEFRVFRLQNPKARVPEQRIELYQILKSKDLTSPTQRYIDSKVVKTRAEGEWLSFDVTDAVHEWLHHKDRNLGFKISLHCPCCTFVPSNNYIIPNKSEELEARFAGIDGTSTYTSGDQKTIKSTRKKNSGKTPHLLLMLLPSYRLESQQTNRRKKRALDAAYCFRNVQDNCCLRPLYIDFKRDLGWKWIHEPKGYNANFCAGACPYLWSSDTQHSRVLSLYNTINPEASASPCCVSQDLEPLTILYYIGKTPKIEQLSNMIVKSCKCS | 2
